Starred links: 1 amine or outer side, 2 acyl side, 3 side chain; linkers in the order of their positions; H or OH if unused. Non-standard residues stand in square brackets, D forms with d. Groups on a side chain read outwards from the residue. Primed or numbered codes have the meaning given here. No end group written: not given here. *: point of attachment. PEG12 = NCCOCCOCCOCCOCCOCCOCCOCCOCCOCCOCCOCCOCCC(=O)O; (PEG)2″ = polyethylene glycol 2 linker unit; C18 diacid = O=C(O)CCCCCCCCCCCCCCCCC(=O)*; Dip = N[C@H](C(=O)O)C(c1ccccc1)c1ccccc1; Heptadecanoyl = CCCCCCCCCCCCCCCCC(=O)*; γGlu = O=C(O)[C@H](CCC(=O)[*:2])N[*:1]; Stearoyl = CCCCCCCCCCCCCCCCCC(=O)*; Palmitoyl = CCCCCCCCCCCCCCCC(=O)*; αMeF = C[C@](N)(Cc1ccccc1)C(=O)O; (PEG)2 = polyethylene glycol 2; PEG4 = NCCOCCOCCOCCOCCC(=O)O; Dodecyl = CCCCCCCCCCCC*; AEEA = NCCOCCOCC(=O)O; Aib = CC(C)(N)C(=O)O
Tests used:
[1] = molecular target: human GLP-1 receptor (hGLP-1R) (human, UniProt P43220 24-463); assay: cell-based or functional assay
[2] = molecular target: human glucagon receptor (hGCGR) (human, UniProt P47871 26-477); assay: cell-based or functional assay
Chain of human glucagon receptor (hGCGR) (P47871 26-477): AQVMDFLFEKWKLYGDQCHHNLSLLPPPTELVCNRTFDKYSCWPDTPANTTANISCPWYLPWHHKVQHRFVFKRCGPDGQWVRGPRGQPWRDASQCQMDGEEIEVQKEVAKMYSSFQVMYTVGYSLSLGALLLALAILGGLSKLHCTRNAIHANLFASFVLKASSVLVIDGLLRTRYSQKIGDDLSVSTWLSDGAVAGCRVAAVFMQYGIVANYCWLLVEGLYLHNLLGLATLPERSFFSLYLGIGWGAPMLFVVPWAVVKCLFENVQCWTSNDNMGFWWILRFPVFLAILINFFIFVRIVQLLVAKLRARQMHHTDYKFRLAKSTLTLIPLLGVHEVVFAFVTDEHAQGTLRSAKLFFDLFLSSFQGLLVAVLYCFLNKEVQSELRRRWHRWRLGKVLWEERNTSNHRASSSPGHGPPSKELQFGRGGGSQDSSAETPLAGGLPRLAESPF

Binder	hGLP-1R EC50 (pM) [1]	hGluc-R EC50 (pM) [2]
H[Aib]HGS[αMeF]TSDVSK[αMeF]LDSK([AEEA-AEEA-γGlu-C18 diacid])AAQDFVQ[Aib]IANT-NH2 [Peptide 11]	157 pM	118 pM
HSQGS[αMeF]TSDVSK[Aib]LDSK([(PEG)2″-(PEG)2″-γGlu-γGlu-Stearyl])AAQD[αMeF]VQ[Aib]IAN-NH2 [Peptide 100]	0.258 pM	40.5 pM
HSQGS[αMeF]TSDVSK[Dip]LDSK([(PEG)2-γGlu-(PEG)2-γGlu-Stearoyl])AAQD[αMeF]VE[Aib]IINT-NH2 [Peptide 61]	4.12 pM	9.55 pM
HSQGS[αMeF]TSDVSK[Dip]LDSK([(PEG)2-(PEG)2-γGlu-γGlu-Dodecyl])AAQD[αMeF]VE[Aib]IINT-NH2 [Peptide 62]	10.1 pM	15.2 pM
HSQGS[αMeF]TSDVSK[αMeF]LDSK([(PEG)2-(PEG)2-γGlu-γGlu-Palmitoyl])AAQD[αMeF]VQ[Aib]IAN-NH2 [Peptide 87]	1.29 pM	8.46 pM
HSQGS[αMeF]TSDVSK[Dip]LDSKAAQD[αMeF]VE[Aib]IINT-NH2 (not fully specified (residue 17)) [Peptide 65]	1230 pM	2060 pM
HSQGS[αMeF]TSDVSK[Dip]LDSK([(PEG)2-(PEG)2-γGlu-γGlu-Palmitoyl])AAQD[αMeF]VE[Aib]IINT-NH2 [Peptide 64]	2.57 pM	3.06 pM
H[Aib]QGS[αMeF]TSDVSK[Dip]LDSK([(PEG)2-(PEG)2-γGlu-Palmitoyl])AAQD[αMeF]VQ[Aib]IAN-NH2 [Peptide 67]	2.43 pM	9.49 pM
HSQGS[αMeF]TSDVSK[αMeF]LDSKAAQD[αMeF]VQ[Aib]LEAGG-NH2 (not fully specified (residue 17)) [Peptide 80]	1.03 pM	9.18 pM
HSQGS[αMeF]TSDVSK[αMeF]LDSK([(PEG)2-(PEG)2-γGlu-γGlu-Heptadecanoyl])AAQD[αMeF]VQ[Aib]IAN-NH2 [Peptide 88]	1.04 pM	6.47 pM
HSQGS[αMeF]TSDVSK[αMeF]LDSK([(PEG)2-(PEG)2-γGlu-γGlu-Palmitoyl])AAQD[αMeF]VQ[Aib]LEAGG-NH2 [Peptide 79]	1.73 pM	10.7 pM
H[Aib]QGS[αMeF]TSDVSK[αMeF]LDSK([PEG4-γGlu-γGlu-Palmitoyl])AAQD[αMeF]VE[Aib]LEAGG-NH2 (N-terminus assumed; SMILES CCCCCCCCCCCCCCCC(=O)N[C@@H](CCC(=O)N[C@@H](CCC(=O)NCCOCCOCCOCCOCCC(=O)NCCCC[C@H](NC(=O)[C@H](CO)NC(=O)[C@H](CC(=O)O)NC(=O)[C@H](CC(C)C)NC(=O)[C@](C)(Cc1ccccc1)NC(=O)[C@H](CCCCN)NC(=O)[C@H](CO)NC(=O)[C@@H](NC(=O)[C@H](CC(=O)O)NC(=O)[C@H](CO)NC(=O)[C@@H](NC(=O)[C@](C)(Cc1ccccc1)NC(=O)[C@H](CO)NC(=O)CNC(=O)[C@H](CCC(N)=O)NC(=O)C(C)(C)NC(=O)[C@@H](N)Cc1c[nH]cn1)[C@@H](C)O)C(C)C)C(=O)N[C@@H](C)C(=O)N[C@@H](C)C(=O)N[C@@H](CCC(N)=O)C(=O)N[C@@H](CC(=O)O)C(=O)N[C@@](C)(Cc1ccccc1)C(=O)N[C@H](C(=O)N[C@@H](CCC(=O)O)C(=O)NC(C)(C)C(=O)N[C@@H](CC(C)C)C(=O)N[C@@H](CCC(=O)O)C(=O)N[C@@H](C)C(=O)NCC(=O)NCC(N)=O)C(C)C)C(=O)O)C(=O)O) [Peptide 72]	3.42 pM	73.7 pM
HSQGS[αMeF]TSDVSK[Dip]LDSK([γGlu-(PEG)2-γGlu-(PEG)2-Stearoyl])AAQD[αMeF]VE[Aib]IINT-NH2 [Peptide 60]	5.16 pM	21.1 pM
HSQGS[αMeF]TSDVSK[Dip]LDSK([PEG12-γGlu-γGlu-Stearoyl])AAQD[αMeF]VE[Aib]IINT-NH2 (N-terminus assumed; SMILES CCCCCCCCCCCCCCCCCC(=O)N[C@@H](CCC(=O)N[C@@H](CCC(=O)NCCOCCOCCOCCOCCOCCOCCOCCOCCOCCOCCOCCOCCC(=O)NCCCC[C@H](NC(=O)[C@H](CO)NC(=O)[C@H](CC(=O)O)NC(=O)[C@H](CC(C)C)NC(=O)[C@@H](NC(=O)[C@H](CCCCN)NC(=O)[C@H](CO)NC(=O)[C@@H](NC(=O)[C@H](CC(=O)O)NC(=O)[C@H](CO)NC(=O)[C@@H](NC(=O)[C@](C)(Cc1ccccc1)NC(=O)[C@H](CO)NC(=O)CNC(=O)[C@H](CCC(N)=O)NC(=O)[C@H](CO)NC(=O)[C@@H](N)Cc1c[nH]cn1)[C@@H](C)O)C(C)C)C(c1ccccc1)c1ccccc1)C(=O)N[C@@H](C)C(=O)N[C@@H](C)C(=O)N[C@@H](CCC(N)=O)C(=O)N[C@@H](CC(=O)O)C(=O)N[C@@](C)(Cc1ccccc1)C(=O)N[C@H](C(=O)N[C@@H](CCC(=O)O)C(=O)NC(C)(C)C(=O)N[C@H](C(=O)N[C@H](C(=O)N[C@@H](CC(N)=O)C(=O)N[C@H](C(N)=O)[C@@H](C)O)[C@@H](C)CC)[C@@H](C)CC)C(C)C)C(=O)O)C(=O)O) [Peptide 58]	3.9 pM	11.3 pM
HSQGS[αMeF]TSDVSK[Dip]LDSK([γGlu-γGlu-(PEG)2-(PEG)2-Stearoyl])AAQD[αMeF]VE[Aib]IINT-NH2 [Peptide 59]	6.18 pM	28.4 pM
HSQGS[αMeF]TSDVSK[Dip]LDSK([(PEG)2-(PEG)2-γGlu-γGlu-Myristyl])AAQD[αMeF]VE[Aib]IINT-NH2 [Peptide 63]	3.14 pM	2.49 pM
